Measurements: the DeepSol protein solubility set

Assay: soluble on expression in E. coli; label from the status in PepcDB or PDB records

| Sequence | soluble on expression in E. coli |
| --- | --- |
| MRRRRVLLLLLSTTTFLRVSTAQQDEPKASVVEVQTKLGTVRGTESDHGNKRVRSFLGVPFAEPPINEHRFKKPTPARPWNGTISANTLSPACFQGRDSYDPTFWGSEMWNANTPVSEDCLYVNIWAPADAYNLTVLVWLFGGGFWYGSPSLLLYDGKELATRGNVIVVNINYRVGPFGYLFLDHEDVPGNMGMLDQQLALYWIRDHIFSFGGNPARISLVGESAGAASIVAHLIAPASKGLFQNGILQSGSLDNKWSMDSPKRAKQKSTALADLVGCNQTKITDQTACLRNTPAQLLIDNIWNVGLNFLEFPFAIVSKDQNFFKHLDGFIALREGTYSTDVNLMFGINHDEGNFWNIYNLAKFFDKQSVKPGLDRDEFHECVDTAFAVQPELVRTAAKYVYSDPKCTDPKKKTDFYTEQVNQMVGDYFFTCDSIWFAHNYPKMAGNQSNVFVYYFDQPSSANPWPKWTGVMHGYEIEYVFGVPLHNTTAGYTKEEMDVSEKVIDFWTTFANTGVPSLRKRAVGTTQKIKWDRYDGTDHTTWMNIKTGSFRMIQEIKKVECDLWRNAKDMEYSAYKEELATTSSSTLTQYTIYLILLSAFQLVFNFF | not soluble |
| MRSALSLKPSNGNAAKSQAVNNKNVIKNAPLGGKLTRQIGTSNLLQQALPSKKIDESPIIKIDAKDSFKVFEDQEPEKENSSENVDATEKDSNVIPAEDNNMIHELERKMEEKSRAEKLKFKFMQTRDNSDITSRFSEPPSEFSVLCDDDDCDKVSVASSTFTTSVRATFSSFHFDENQRKKEFGKEEAVKKIQKKAAKEARDDSMFSSEEFFPDIIKYMLHRQTKNRASHECFDIQSQVNEEMRTILIDWFSDVVKEYNFQKETFHLAVSLVDRALSMFNIDKMRFQLVGTTSMMIAVKYEEIFPPEIEDFALITDNTYRVPDILLMERFLLGKFDFVVAMPTSSWFGTCFAKRMNFTKKMRNTVHYLLELSLIDVHFLRYRPSDIAAAACCFANLQADVESWPQKMVDDTGISTEDFVDVLRDLHRMYLNASTADFKSIFYNYSETAQMEVALLPAPTDKLRSMFPSIFVTAPKSSNDSSSPQ | not soluble |
| MRSDTSVEPEGANFIAEFFGHRVYPEVVSTEAARNDQATGTCPFLTAAKLVETSCVKAETSRGVCVVNTAVDNERYDWLVCPNRALDPLFMSAASRKLFGYGPTEPLQFIAAPTLADQAVRDGIREWLDRGVHVVAYFQEKLGGELSISKTDSSPEFSFDWTLAEVESIYPVPKIKRYGVLEIQTMDFHGSYKHAVGAIDIALVEGIDFHGWLPTPAGRAALSKKMEGPNLSNVFKRTFYQMAYKFALSGHQRCAGTGFAIPQSVWKSWLRHLANPTLIDNGDGTFSLGDTRNDSENAWIFVFELDPDTDASPRPLAPHLEIRVNVDTLIDLALRESPRAALGPSGPVATFTDKVEARMLRFWPKTRRRRSTTPGGQRGLFDA | soluble |
| MRSLADFEFNKAPLCEGMILACEAIRRDFPSQDVYDELERLVSLAKEEISQLLPLEEQLEKLIALFYGDWGFKASRGVYRLSDALWLDQVLKNRQGSAVSLGAVLLWVANRLDLPLLPVIFPTQLILRIECPDGEIWLINPFNGESLSEHMLDGWLKGNISPSAELFYEDLDEADNIEVIRKLLDTLKASLMEENQMELALRTSEALLQFNPEDPYEIRDRGLIYAQLDCEHVALNDLSYFVERCPEDPISEMIRAQINNIAHKHIVLHMAGDPLEHHHHHH | soluble |
| MRSRPTEGNLLVSIGIPFLNPGPYLDLAVRSVFAQTYLNWELILVDDGSTDGSYERAVAIQDPRVRVLRDGQNKGLPARLNEIVRLAKGELVARMDADDAMHPLRLEKQVGFLQANPELDGVTTGAYLIDAEDRPIALLPGRQPSAQEVLARGGFLHPSLLARKSWFEAHPYSLDYPRAEDRELFVRTFKTSRLHVLSEPLYFYRWFGVPRGKTLRIGYRSERKVMWKYGPNLVGWGPSLRLIALSFGKELLTWFLEWTHLEKGFQTRRAFQPLLEMDQREALRTLKVIRETCVPGWD | soluble |
| MRTDPERFILDNAAIMHPPHVPELRLHLATEAHELWLKTEEELEEIGLPPPFWAFAWAGGQGLARYILDHPESVCGKRVLDFASGSGLVAIAAAKAGAAKVLAADIDPWTETAIRLNAALNGVDIGFTGLDLVGKPVDADVLLAGDVFYDRAFADLLVPWFVELTEKGMIVLVGDPGRAYLPKERLRAEATYQVPVTRALEDSDVKKTTVWRFILEHHHHHH | soluble |
| MRTMVFPGSAPAYPIRYPSTMQETDSGAGPRTLRRGLMVLAALRDQGPRGLSVTDIARQTGIQRPTIYRLLAALLDAGLVVPLQGTKKYRTQLAADADLAAPDPRVRQMLPVLRRLADRTGDAVFLVVRDGDDSVSLHREIGSYPVQILATYAGKRQPLGVGSGGMALLAALPDEIAHAIVQRNSGRLDEYGGMTPQEMHRLIENTRARGYSVVGNHAVRGALGVGCALLDAQGAPVLAVSVTAIIDRMPAQRQREIAGWIGAELARLAPKA | not soluble |
| MRTVEVVGRGPAVDALAAFLADIDVSVAQPSTPADSSGDLAIVVDTVGSERFAAWNDRAKDDAIPWVAVELGGVGGVPVTDAAISGFGPETGCFDCLRTRVEATVDDTEEVTGAPAAATQRFAGALAGRLVTQFLDGDAALLGTVTELPHTQRRFLPVPGCDCGGTQGHSLGDGRQTAPDSEALSRAELGLDDRVGIATEVGEVESFPAPYYLSTLADTAGFSDVSAAAKAAGVAIDWDTAFMKALGENYERYAAGVYREGNLQHGTVADVPAAVTPDTFVRDEAEWDESHALPWVPAENLLTDEQRSLPAETVHYPPPSNAVRPATTTGLGLGNTVTEALLTGLYEVIERDAAMLSWYSTFDPLRVAIDEHEQYETLRRRATSEGLDVTALLLTQDVDVPVITVALAQDEWPRFALGTDADLNPGAAAVGALEEALQNWMELDSMGPEAAMDAQGAIGRYAKSPGEAADLTASETAVPLDSLGPDVDLSGEAELETLCDRAADAGLAPYGTRLTTRDLEQLGFEAVRVVCPSAQPLFFGESFFGERAETVPADLGFEPRLDRDHHPFP | soluble |
| MRVDIWSDVVCPFCYIGKKRLEHVAAEAGIELDVHWHSFELDPDAPTSHDTSNTERLAKKYGRTFEEMQEMQQNIASMAAQEGIDFQWQKANSGNSFNAHRIIHLAQSKGLGNEAEEAFFHAYMTEGLAIGEREVVEEIASRIGLDHAEVEFVLDSNELSDFVRHDEKIAHEQLNISGVPFFVFDQKLALSGAQPKEVFLQVLQKALTQRENDAVAEASSDAVCSDDSCDIPQKS | not soluble |
| MRVGLFTDSYFPQISGVATSIRTLALELEKLGHEVFIFTTTDPNADVDHERNIIRLQSIPFVSLAERKIVLKGVFAAYLIAKEYDLDIIHTQTEFGMGILGKMVAAQLRIPVIHTLHTKYEDYVYYIAKGRLIRPSMVKYIIRNFLRGTEAIICPSEMVLETVNSYGVTLPKRVIPTGIEIDRFKRDDIEPEETAKLRVELGLAENEIMLLSLSRIAAEKNIQAVIHALPDILEEFPVKLVIVGHGPYAENLKELVKELELTDKVVFTGPVENEKTAYYYKAADFFISASTSETQGLTYLEAMAAGTRVLAAKNPYLSELINDDEFGQLFIGDDDLAEVTKKAIRDLHPIDKDKFEKKLYEISAENFAKKVYLFYIDTIIEYNNLKSIEAERFPMKMEDTIRQMPVTVKRSLKREQIRAKYFARKASKLAKNLQSYVKIDKDKEQDLEHHHHHH | soluble |
| MRVITVAGPPSVGKTSVVVKTATTLAAQGHRLGIVKFDSLSTSDDQVYRRAGLPVVVGLSGNVCPDHFFVSNIDDCVDWGRTHGVDILVAESAGLCNRCSPHVQGVQAICVVDNLSGVHTPRKIGPMLKLADVVVITKGDIVSQAEREVFAYNVRLANPRAQVMQFHGITGQGASDLAARMLCAPVVDALEGRRLRFSMPSAVCPYCIGETAIGVDHQRGNVRKMSFAEPARLEHHHHHH | soluble |
| MRVNVPVQVPPPASPPQPSQPAGQAQGGVTAPVIKVLPGNPLPPAGSAFVDDFSSYPTGAVLPMVAPDRYGVYKAPNGTLSPAVAETFTPQGGLDKALRLEAANTAMLTTGAPDWTDYRVSFRFKYETGGTLDVGLFVHGSGDRMLIVRLGWGYTGGVHLIKVAGDQRFTLVSRRELKPLTEALKDQNWHDFAAEARSDGTVRVMVDQQTVIEWKDPDYRAGGIGIGINRLGDRIIWHIDDLKVERL | soluble |
| MRVVAIGVGGAGGRIVDALHEDDSTREASYLAGGSVLETDRGALAALDAVSEEDRHHFGHSGFGGDADSPRERIEALAEDDHVEMRRAVDSAITSDAAAIIVIAGVGGATGSVIAPKLTDALQRIYDRPVYAVSVLPATHEEVPPENPARAIAAFESAANAQLVFDNDAWVDDRNDVEDVTDGLNAELAMRLGALFSAGEAVTAESVGQRVVDASEVISTLDEGGLATIGFARQPLGTDGDDGSLLDRARELVGMDETTVDEVESIKAVETTLRQATNGRLTFDCPRDAARSGLLVVSGPPEWLHQTAVSDGQSWLADEIGSVQLRTGDNPMPGGDELTILVLLGGIRGAPRIKEIQAATDLEHHHHHH | soluble |
| MRWWLCILVLLLAVPAQALLMPGTRVVEEHHANPFEIDVSSIDNLGDIPVDDPSDGINWSFLYLPYPNCTSGTGDATFIAVSRGSSNNILIYLEGGGACSDFYTCGMGQYVDHASCNATPTATVTTLNPNPWVVSYHYRYGIFDRANPDNPFRDWTIVFVPYSTGDVHWGNRVVKYCYYNPYNLSQVDCSINFTVHHVGFVNAITAIRWAAEQGDFDKVVIAGSSAGGYGTIVHSFYAREIFGKPILAIDDAGPGLNVNQSNFTIQMLFGIETLNETWGAYDNLPDDAQDFLGDRDPIFFVDYFLDHYPDSRFALYEDQMDYTIGVFFNGYTEEQFRDLLLNKACEIKAMHRHNFFRYLPLGTEHTILAYPWFYEKNIHNYRVYEWVWDLIKGKKRDAVELDGVRGIYLACPPGIFAKLEHHHHHH | not soluble |
| MRYDVLARAGFARRGNLHLPHSIVETPVFMPVGTQGTMKGIVPEQLVSMDCRILLCNTYHLGHRPGHERVKAAGGLHKMMNWNRSILTDSGGFQMVSLSKLMTVDENGVNFESPHTGEMMALPPEKSIEIQQALGADIMMQLDHVIHVLTTGDIVKEAMHRSIRWLDRCKVAHTRDDQAMFPILQGGLNLELRKECAKEMAKRAKVGIAIGGLSGGEEKDHFWRVVAACCAALPPHLPRYVMGVGFPVDLVICSFLGADMFDCVYPTRTARFGTAMVRRGGLMQLNQKRYKEDFLPIDKKCECNTCKNYTRAYIHSIVGKETVGCHLVSVHNIKHQLDLMRDVRQAIQSNSVEQFLKQFLYDYYGPIQSENPSKQDSEKMREVPQWVRDAVDHMGYKLDF | not soluble |
| MRYPESLLKLTRALSRLPGIGPKTAQRLALHLAFHKEEAEALAEALEGIKRVRACRECGNLAEGELCPICQDEDRDRSLLAVVESVADLYALERSGEFRGLYHVLGGALNPLEGIGPKELNLEGLFRRLEGVEEVVLATSMTVEGEATALYLAEELKKRGVRVTRPAYGLPVGGSLEYADEVTLGRALEGRRPV | soluble |
| MRYSFVIQWDFETVYTGVNSTTNLAFSVKAMTTNFANLQELQDSLVLRGQNLTTQLFWKPTVKRLVLGNNNDLTTVAKAAVGDNLFTTQANLTKSVLDQTVLKEAESRFEATVLKPFIEARQKALAEHQAHQKVLEEQRQKQLEELKQKQKEAE | soluble |
| MSAEEKNLIEILEEGHKVDVVKYIDYVSAPQAGAIATFSGTTRDMFEGKTVLELRYEAYVPMATRCLSSICTTARSTWDIHKIAVAHRLGPVPVGETSVLIAVSSVHRADGLDACKFLIDELKASVPIWKKEVYTNGEIWKENSEFMEKRLELAEKRDSIVKKTVVEEHRRRGCCGSKVRVEEDEEHKDITGDNKSSS | soluble |
